One molecule from publication PMC9063470, “Ultrasensitive fluorescent aptasensor for CRP detection based on the RNase H assisted DNA recycling signal amplification strategy” can be followed below.

Series [1] deals with T1, C-reactive protein (CRP) (UniProt P02741 19-224).
T1 sequence: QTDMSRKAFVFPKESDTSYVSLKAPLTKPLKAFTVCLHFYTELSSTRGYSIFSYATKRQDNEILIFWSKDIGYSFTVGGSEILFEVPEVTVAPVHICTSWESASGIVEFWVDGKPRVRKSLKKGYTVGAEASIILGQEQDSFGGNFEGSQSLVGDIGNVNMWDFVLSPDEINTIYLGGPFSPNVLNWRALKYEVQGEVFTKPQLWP
Description: fluorescent strand-displacement aptasensor (RNase H recycling, GO quenching); CRP 10 ng/mL; P1 strand released from Ap/P1; 20 mM Tris-HCl, 40 mM KCl, 8 mM MgCl2, 1 mM DTT, pH 7.8; 20 min Ap/P1 + CRP incubation; temperature not stated. As to conditions: chain copies: 5; label: none (5-FAM is on the reporter RNA S3, not on Ap or P1); partial duplex: P1 (23 nt) pairs with Ap nt 48-70; 47 nt 5' and 2 nt 3' single-stranded Ap overhangs.

Series [2] addresses BNP (UniProt P16860 103-134). Description: fluorescent strand-displacement aptasensor (RNase H recycling, GO quenching); 50 ng/mL; negligible signal; 20 mM Tris-HCl, 40 mM KCl, 8 mM MgCl2, 1 mM DTT, pH 7.8; 20 min Ap/P1 + CRP incubation; temperature not stated. As to conditions: label: none (5-FAM is on the reporter RNA S3, not on Ap or P1); partial duplex: P1 (23 nt) pairs with Ap nt 48-70; 47 nt 5' and 2 nt 3' single-stranded Ap overhangs.

Series [3] deals with T2, MB (UniProt P02144 2-154).
T2 sequence: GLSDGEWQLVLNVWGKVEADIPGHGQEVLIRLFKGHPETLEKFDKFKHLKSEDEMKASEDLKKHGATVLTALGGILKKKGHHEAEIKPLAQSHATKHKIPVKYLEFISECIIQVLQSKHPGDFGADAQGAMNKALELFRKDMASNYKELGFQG
The series is described as above. As to conditions: label: none (5-FAM is on the reporter RNA S3, not on Ap or P1); partial duplex: P1 (23 nt) pairs with Ap nt 48-70; 47 nt 5' and 2 nt 3' single-stranded Ap overhangs.

BNP, sequence (P16860 103-134): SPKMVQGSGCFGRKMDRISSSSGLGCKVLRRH

B1: CRP aptamer (Ap) presented as Ap/P1 complex (mixed)
DNA 1: GGCAGGAAGACAAACATATAATTGAGATCGTTTGATGACTTTGTAAGAGTGTGGAATGGTCTGTGGTGCTGT
DNA 2: AGCACCACAGACCATTCCACACT
Turning to B1, the binding result in series [1] is reported as “binds”; in series [2] it was “no binding”; in series [3], “no binding”.
